In the nanobody polyreactivity screen of Harvey et al. (2022):

Experiment: yeast display, Sf9 membrane polyspecificity reagent, FACS + sequencing; frameworks hold sequencing errors
Summary of the method: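 Galactose induction of a Saccharomyces cerevisiae BJ5465 synthetic nanobody display library ran 36–48 hours. The cells were then stained for 1 hour at 4 °C with 10% biotinylated, detergent-solubilized Sf9 membrane reagent, pulled down on streptavidin microbeads and FACS-sorted into low and high (top ~1%) gates on expression and reagent-binding fluorescence. Labels for polyreactivity follow the gate of origin.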

Row | Sequence | polyreactivity (PSR sort gate)
1 | KVQLVESGGGLVQAGGSLRISCAASGSNFGRYAMGWYRQAPGKERELVAAISARGGSTYYADSVKGRFTISRDNAKNTVYLQMNSLKPEDTAFYYCNVLVRYSDQSSDSWGQGTQVTVSS | high polyreactivity
2 | QVQLVESGGGLVQAGGSLRLSSAATGRTFPSNAMGWYRQAPGKERELVAAISVSSGRTYYADSVKGRFTISRDNAKNTVYLLMNSLKPEDTAVYYCAALWARYPYLFGFDYWGQGTQVTVSS | high polyreactivity
3 | QVHLVESGGGLVQAGGSLRLSCAASGLTFYYYVMGWYRQAPGKERELVAAISYSGGRTYYADSVKGRFTISRDNAKNTVYLQMNSLKPEDTAVYYCAAQSRYGGKFYYWGQGTQVTVSS | high polyreactivity
4 | QVQLVESGGGLVQAGGSLRLSCAATGFTFRTYAMGWYRQAPGKERELVAAITVSGGTYYADSVKGRFTITRDNAKNSFYFQMISLKPEDTAVYYCTAKRFRTGFDYWGQGTQVTVSS | low polyreactivity
5 | QDHLVESGGGLVQAGGSLRLSCAASGRTVGIYAMGWYRQAPGKVRELVASISWSGGRTYYADSVKGRFTISRENAKNTVYLQMNSLKPEDTAVYYCAAYGVYYPRSWLYFDWYGYCGQGTQVTVSS | high polyreactivity
6 | QVQLVESGGGLVQAGGSLRLSCAASGFIISDYAMGWYRQAPGKERELVAVITWRSGSTYYADSVKGRFTISRDNAKNTVYFQMHSLKPVDTAVYYCAARYYRNYSQGRRLGYNYWGQGTQVTVSS | high polyreactivity
7 | QVQLVESGGGVDQAGGSLRLSCAASGLSLRVNVMGWYRPAPGKERELVAAISGGGRTYYADSVKGRFTISRDNAKNTVYLQMNSLKPEDTAVYYCATVRRRLSLTYDYWGQGTQVTVSS | high polyreactivity
8 | QVQLVESGGGLVQAGGSLRLSCASSGRIFHVYAMGWYRQAPGKERELVADITWSGGSTYYADSVKGRFTISRDNAKNTVYLQMNSLKPEDTAVYYCAASVLYGRHYSYGYWGQGTQVTVSS | high polyreactivity
9 | QVQLVESGGGLVQAGGSLRLSCAASGSIFTDYTMGWYRQAPGKERELVAAISWIGDSTDYADSVKGRFTISRDNAKNTVYLQMNSLNPEDTAVYYCAKSRAGRYNDYDYWGQGTQVTVSS | low polyreactivity
10 | QVQLVESGGGLVQAGGSLRLSCAASGYTFGFYALGWYRQAPGKERELVAAITVSGGSTYYADSVKGRFTISRDNAKNTVYLQMNSLKPEDTAVYYCAAEVWFYSTFLYDYWGQGTQVTVSS | high polyreactivity
11 | QVQLVESCGGLVQAGGSLRLSCAASGFIFDWYAMGWYRQAPGKVRELVAAITTDGGGTYYADSVKGRFTISRDNAKNNVYLQMNSLKPEDTAVYDCAADGVSTSPQYDYWGQGTQVTVSS | high polyreactivity
12 | QVQLVESGGGLVQAGGSLRLSCAASGFTFGPNTMGWYRPAPGKERELVAAISARGGRTYYADSVKGRFTISRDNAKNTVYLQMNSLKPEDTAVYYCAAPGYVRTGVTYGGYYWGQGTQVTVSS | high polyreactivity
13 | QVQLVESGGGLVQAGGSVRLSCAASGRIFRHNTRGWYRQAPGKERELVAAITFSDGNTYYADSVKGRFTISRDNAKNTVYLQMNSLKPEDTAVYYCNAGYSYGVSYAEGGYWGQGTQVTVSS | low polyreactivity
14 | QVQLEESGGGLVQAGGSLRLSCAASGLTLYKNGMGWYRQSPGKERELVAVISRSGGRTYYADSVKGRFTISRDNAKNTVYLQMNSLKPDDTAVYYCAARQYGPRYTYYYWGQGTQVTVSS | high polyreactivity
15 | QVQLVESGGGLVQAGGSLRLSCAASGLTFIKYAMGWYRQAPGKEREFVADISKRGGTTYYADSVKGRFTISRDNAKNTVYLQMNSLKPEDTAFYYCAARQYLNVYYRYDYWGQGTQVTVSS | high polyreactivity
16 | QVQLVESGGGLVQAGGSLRLSCAASGSIFSGNAMGWYRQAPGKERELVAAITTRSGSTYYADSVKGRFTISRDNAKNTVYLQMNSLKPEDTAVYYCAATGYRYRRIYGFDYWGQGTQVTVSS | high polyreactivity
17 | QVQLVESGGGLVQAGGSLRLSCAASGRTFGYYAMGWYRQAAGKDREFVAAITAGRGSTYYPDSVKGRFTISRDNAKNTVYLQMNSLKPEETAVYYCNAVPPGRTPVKGNFYYWGQGTQVTVSS | high polyreactivity
18 | QVQLQESGGGLMQAGGSQRLSCAASGSISSYSDMGWYRQAPGKEREFVAGIGYGTTTNYADSVKGRFTTSRDNAKNTVYLQMISMKPEDTAVYYCAAYQGNGYEFYYWGQGTQVTVRS | low polyreactivity
19 | QVQLVESGGGLVQAGGSLRLSCAASGSTIGIYAMGGYRQAPGKERELVAAISSGGSTNYGDSVKGRFTISRDNEKNTVYLQMNSLKQEDTAVYYCAVESVYEYGGYVDSAYDYWGQGTQVTVSS | low polyreactivity
20 | QVQLVESGGGLVQAGGSLRLSCAASGRTFYANAMGWYRQAPGKERELVASITTSGGTYYADSVKGRFTISRDNAKNTVYLQMNSLKPEDTAVYYCAAEVYRSIGYDYWGQGTQVTVSS | low polyreactivity
21 | QVQLVESWGGLVQAGGSLRLSCAASGRTFYSNAMGWYRQARGNERELVAAISRSGGTTYYADSVKGRFTISRDNAKNTVYLLMNSLKPEDTAVYYCNTLRYGTTGKYDYWGQGTQVTVSS | high polyreactivity
22 | QVQLVESGGVLVQAGGSLRLSCAASGRTLRPYAMGWYRQAPGKERELVAAMTGGVSTDYADSVKGRFTISRDNAKNTVYLQRNSLKPEDTAVYYGAVDDRWFNHISGRYYEYYYWGQGTQVTVSS | low polyreactivity

Row | Sequence | polyreactivity (PSR sort gate)
23 | QVQLVESGGGLVQAGGSLRLSCAASGSIFRGYTMGWYRQATGKERELVAAITSGDSTNYADSVKGRFTISRDNAKNTVYLQMNSLKPEDTAVYYCAAGRLYLPYLVYLTYSFVGYYYWGQGTQVTVSS | high polyreactivity
24 | QVQLVDSGGGLVQAGGRLRLSCAASGYILTHYAMGWYRQAPGKERELVAAITRVGNTNYADSVKGRFTISRDNAKNTVYLQMNSLKPEDTAVYSCAADGVASLFGDPPTEFDYWGQGTQVTVSS | low polyreactivity
25 | QDQLVESGGGLDQARGSLRLICAASGSTFKYYAMPSYRQAPGKERELVAAISWSGGNTYYADSVKGRFTISRENAKNTDYLQMNCLKPEDTAVYYCAADTKVGNGIKFDYWGQGTHVTVSS | high polyreactivity
26 | QVQLVESGGGLVQAGGSLRLSCAASGFILGVYAMGWYRQAPGKERELVAAISKSGDSTYYADSVKGRFTISRDNAKNTVYLLMNSLKPEDTAVYYCNADWSWYNYYDFDYWGQGTQVTVSS | low polyreactivity
27 | QVQLVESGGGLVQAGGSLRLSCAASGFIFTDYAMGWYRQAPGKEREFVAAIDWSGGNTYYADSVKGRFTISRDNAKNTVFLQMNSLKPEDSAVYYCAASGSAREYDYWGQGTQVTVSS | low polyreactivity
28 | QVQLVESGGGLVQAGGSLRLSGAASGRIFYYNTMGWYRQAPGKEWEVVAAISSTAYTTYADSVKGRFTISRDNAKNTVYLQMYSLKPEDTAVYYCAAYRYSRYRQRYNYWGQGTQVTVSS | high polyreactivity
29 | QVQLVESGGGLVQAGGSLRLSCAASGYIIWDYAMGWYRQAPGKEREFVATISRSVGSTYYADSVKGRFTISRDNAKNTVYLQMNSLKPEDTAVYYCAAVTWGEGFDYWGQGTQVTVSS | low polyreactivity
30 | QVQLVESGGGLVQAGGSLRLSCAASGSTISSYAMGWYREAPGKERELVAAIDRSVSTNYADSVKGRFTISRDNAKNTVYLQMNSLKPEDTAVYYCNARHPTDDIVIYDYWGQGTQVTVSS | low polyreactivity
31 | QVQLVESGGGLVQAGGSLRLSCAGSGGIFGSNAMGWYREAPGKERALVAAISWRGGSTYYADSVKGRFTISRDNAKNSVYLQMNSLKPEDTAGYYCAARYRWGYSTSYSYRFHYWGQGTQVTVSS | high polyreactivity
32 | QVQLVESGGGLVQAGGRLRLSCAASGSIFFDNTMGWYRQAPWKERELVASITYSGSTYADSVKGRFTISRDNAKNTVYLQMNSLKPEDTAVYYCNTESYWKVERFDYWGQGTHVTVSS | low polyreactivity
33 | QVQLVESGGGLVQAGGSLRLSCAASGSIFSSYAMGWYRQAPGKERELVAVINSGGSTNYADSVKGRFTISRDNAKNSVYVQMKSLKPEDTAVYYCNAYGGTFHNTAAEFDYWRQGTQVTVSS | low polyreactivity
34 | HVQLVESGGGLVQAGGSLRLSCAASGFTFVPYAMGWYRQAPGKERELVAAISSGGSTYYADSVKGRFTISRDNAKNTVYLQMNSLKPEDTAVYYCATTGWYRYGRKFYYWGQGTQVTVSS | high polyreactivity
35 | QVQLVESGGGLVQAGGSLRLSCAASGRIFYIYTMGWYRQAPGKEREFVAGINWNGGSTYYADSVKGRFTISRDNAKNTVYLQMNSLKPEDTAVYYCNADQYWDRYYYWGQGTQVTVSS | low polyreactivity
36 | QVQLVESGGGLVQAGGSLRLSCAASGSIFLYYAMGWYRQAPGKERELVAGIRRGGRTNYADSVKGRFTIPRDNAKNTVYLQMNSLKPEDTAVYYCAKGGYWGQGTQVTVSS | high polyreactivity
37 | QVQLVESGGGLVQAGGSLRLSCAASGLIFFYYTMGWYRQAPGKERELVAAISQSGGRTYYADSVKGRFTISRDNAKNTVYLQMNSLKPEDTAVYYCAAAVRYRGDEFDYWGQGTQVTVSS | low polyreactivity
38 | QVQLVESGGGIVQAGGSLRLSCAASGSIQRYNDMGWYRQAPGKERELVAAISRSGGSTYYTDSVKGRFTISRDNAKNTDYLQMNSLKPEDTAVYFCYKASYTTVYAKYYYWGLGTQVTVSS | high polyreactivity
39 | QVQLVESGGGLVQAGGSLRLSCAASGSTFSYYAMGWYRQAPGKERELVAAITRSGGRTYYADSVKGRFTISRDNAKNTVYLQMNSLKPEDTAVYYCAALSVGTRRDYWGQGTQVTVSS | low polyreactivity
40 | QVQLVESGGGLVQAGGSLRLSCAASGFTFSRNVMGWYRQAPGKERELVADITLSGASTYYADSVKGRFTISRDNAKNTVYLQMNSLKPEDTAVYYCAAEPYHWRWGWRHDYWGQGTQVTVSS | low polyreactivity
41 | QVQLVESGGGLVQAGGSLRLSCAASGSTFYLYAMGWYRQAPGKERELVAAISWSGDSTYYADSVKGRFTISRDNAKNTVYLQMNSLKPEDTAVYYCAAEFYWGDLSYWGQGTQVTVSS | high polyreactivity
42 | QVQLVESGGGLVQAGGSLRLSCAASGMIFSDYSMGWYRQATGKERELVATITRSVRTSYADSVKGRFTISSDNAKNTVYLQMNSLKPEDTAVYYCNADVVGAVIAFDYWGQGTQVTVSS | low polyreactivity
43 | QVQLVESGGGLVQAGGSLRLSCAASGRTFRRYAMGWYRQAPGKERELVAAITYRGGSTYYADSVKGRFTISRDNAKNTVYLQMNSLKPEDTAVYYCNKQGNGQLGTTQGRYDYWGQGTQVTVSS | high polyreactivity
